{"source": "paper PMC2852676", "about": "(Current Biology, 2010)", "molecular_target": "T1, Smc3 hinge domain fusion protein, wild type (Smc3H) (yeast, UniProt P47037 495-705)", "T1 sequence": "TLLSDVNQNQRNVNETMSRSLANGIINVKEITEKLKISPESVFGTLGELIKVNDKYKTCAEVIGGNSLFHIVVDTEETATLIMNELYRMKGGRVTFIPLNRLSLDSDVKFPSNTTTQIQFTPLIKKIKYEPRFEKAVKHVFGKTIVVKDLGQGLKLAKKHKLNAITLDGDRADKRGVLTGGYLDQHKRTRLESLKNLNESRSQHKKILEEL", "experiment": "SEC", "data": [{"binder": "Smc1 hinge domain fusion protein, wild type (Smc1H) (domain or fragment) SANQRETMKERKLRENIAMLKRFFPGVKGLVHDLCHPKKEKYGLAVSTILGKNFDSVIVENLTVAQECIAFLKKQRAGTASFIPLDTIETELPTLSLPDSQDYILSINAIDYEPEYEKAMQYVCGDSIICNTLNIAKDLKWKKGIRGKLVTIEGALIHKAGLMTGGISGDANNRWDKEE", "values": [{"measurement": "binding result", "value": "binds"}]}]}
